Assay [1] addresses Purified PCSK9 carrying a C-terminal FLAG tag (UniProt Q8NBP7). Nature of the assay: AlphaScreen PCSK9-FLAG/His-LDLR; non-specific control; log[antibody] ug/ml -1.9909.
The target is the same in assay [2]. The assay is described as above. This is another data set of the same source.
Assay [3] shares this target. As to the kind of experiment: AlphaScreen PCSK9-FLAG/His-LDLR; non-specific control; log[antibody] ug/ml -0.08241.
The target is the same in assay [4]. Nature of the assay: AlphaScreen PCSK9-FLAG/His-LDLR; non-specific control; log[antibody] ug/ml -0.55953.
For assay [5] the target is unchanged. As to the kind of experiment: AlphaScreen PCSK9-FLAG/His-LDLR; non-specific control; log[antibody] ug/ml -1.03665.
For assay [6] the target is unchanged. As to the kind of experiment: AlphaScreen PCSK9-FLAG/His-LDLR; non-specific control; log[antibody] ug/ml -1.51377.
Assay [7] has the same target. As to the kind of experiment: AlphaScreen PCSK9-FLAG/His-LDLR; non-specific control; log[antibody] ug/ml -2.46802.
For assay [8] the target is unchanged. Nature of the assay: AlphaScreen PCSK9-FLAG/His-LDLR; non-specific control; log[antibody] ug/ml 0.394711.
For assay [9] the target is unchanged. As to the kind of experiment: AlphaScreen PCSK9-FLAG/His-LDLR; non-specific control; log[antibody] ug/ml 0.871832.
Assay [10] has the same target. As to the kind of experiment: AlphaScreen PCSK9-FLAG/His-LDLR; non-specific control; log[antibody] ug/ml 1.348954.
For assay [11] the target is unchanged. As to the kind of experiment: AlphaScreen PCSK9-FLAG/His-LDLR; non-specific control; log[antibody] ug/ml 1.826075.
Assay [12] has the same target. Nature of the assay: AlphaScreen PCSK9-FLAG/His-LDLR; non-specific control; log[antibody] ug/ml -0.08241. This is another data set of the same source.
Assay [13] has the same target. Nature of the assay: AlphaScreen PCSK9-FLAG/His-LDLR; non-specific control; log[antibody] ug/ml -0.55953. The source holds these as a separate data set.
The target is the same in assay [14]. As to the kind of experiment: AlphaScreen PCSK9-FLAG/His-LDLR; non-specific control; log[antibody] ug/ml -1.03665. This is another data set of the same source.
The target is the same in assay [15]. As to the kind of experiment: AlphaScreen PCSK9-FLAG/His-LDLR; non-specific control; log[antibody] ug/ml -1.51377. This is another data set of the same source.
The target is the same in assay [16]. As to the kind of experiment: AlphaScreen PCSK9-FLAG/His-LDLR; non-specific control; log[antibody] ug/ml -2.46802. This is another data set of the same source.
The target is the same in assay [17]. As to the kind of experiment: AlphaScreen PCSK9-FLAG/His-LDLR; non-specific control; log[antibody] ug/ml -2.94514.
Assay [18] shares this target. Nature of the assay: AlphaScreen PCSK9-FLAG/His-LDLR; non-specific control; log[antibody] ug/ml 0.394711. The source holds these as a separate data set.
Assay [19] has the same target. As to the kind of experiment: AlphaScreen PCSK9-FLAG/His-LDLR; non-specific control; log[antibody] ug/ml 0.871832. The source holds these as a separate data set.
Assay [20] has the same target. As to the kind of experiment: AlphaScreen PCSK9-FLAG/His-LDLR; non-specific control; log[antibody] ug/ml 1.348954. The source holds these as a separate data set.
For assay [21] the target is unchanged. Nature of the assay: AlphaScreen PCSK9-FLAG/His-LDLR; non-specific control; log[antibody] ug/ml 1.826075. The source holds these as a separate data set.
The target of assay [22] is mouse liver LDL receptor (C57BL/6j mice) (mouse) (UniProt P35951). As to the kind of experiment: cell-based or functional assay.
Assay [23] addresses T1, Purified PCSK9 carrying a C-terminal FLAG tag (UniProt Q8NBP7 31-692).
T1 construct: also called PCSK9-FLAG; PCSK9-Flag; not shown: C-terminal FLAG tag
As to the kind of experiment: AlphaScreen, inhibition of PCSK9-Flag/His-tagged LDL receptor interaction. As for the experimental part: (§1) This technique required that “donor” and “acceptor” beads be brought into proximity via protein—protein interaction, resulting in increased luminescence (Ullman et al., Proc. Nat. Acad. Sci. (1994) 91:5426-5430). […] About 2.5 μl of biotinylated anti-Flag-M2 antibody (1.8 μg/ml) was added and the mixture incubated for 1 hour. Afterward 5 μl of streptavidin donor bead and nickel chelate acceptor bead (1:1 mixture) was added and the assay incubated overnight. AlphaScreen signal (counts per second) was analyzed using an EnVision microplate reader (Perkin-Elmer). All data points were determined in triplicate. Assays were carried out at 23° C. in buffer containing 25 mM HEPES, 0.1 M NaCl, pH 7.4, 0.1% BSA. The inhibition assays were determined similarly with slight adjustments to assay volumes and protein concentrations.

Assay [24] addresses T1, Purified PCSK9 carrying a C-terminal …. As to the kind of experiment: AlphaScreen, inhibition of PCSK9-Flag/His-tagged LDL receptor interaction, relative to no antibody. The protocol:
as §1

The record followed here is patent US20140161798A1 (Merck Sharp & Dohme, published 2014).

Positions count from the first letter of the chain named.

T1 sequence (Q8NBP7 31-692 limits assumed): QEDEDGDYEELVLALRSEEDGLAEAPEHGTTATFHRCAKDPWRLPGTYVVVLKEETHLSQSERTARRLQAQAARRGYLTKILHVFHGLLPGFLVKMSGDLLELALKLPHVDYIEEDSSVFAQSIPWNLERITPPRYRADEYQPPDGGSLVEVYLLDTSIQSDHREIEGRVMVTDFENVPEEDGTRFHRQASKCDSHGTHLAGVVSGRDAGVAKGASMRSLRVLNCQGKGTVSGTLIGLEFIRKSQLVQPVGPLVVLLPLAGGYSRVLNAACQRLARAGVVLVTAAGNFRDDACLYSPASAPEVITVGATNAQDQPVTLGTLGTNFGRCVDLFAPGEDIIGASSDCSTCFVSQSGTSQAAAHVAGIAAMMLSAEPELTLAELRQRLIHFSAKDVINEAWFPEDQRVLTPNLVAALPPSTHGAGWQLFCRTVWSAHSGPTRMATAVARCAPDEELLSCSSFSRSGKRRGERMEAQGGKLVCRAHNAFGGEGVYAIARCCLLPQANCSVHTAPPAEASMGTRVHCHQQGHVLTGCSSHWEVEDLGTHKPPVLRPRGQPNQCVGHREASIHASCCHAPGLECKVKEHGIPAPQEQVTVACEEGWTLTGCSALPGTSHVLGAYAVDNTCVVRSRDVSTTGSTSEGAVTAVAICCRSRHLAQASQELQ
Sequence of Purified PCSK9 carrying a C-terminal FLAG tag (UniProt Q8NBP7) (Q8NBP7 31-692 limits assumed): as above
Sequence of mouse liver LDL receptor (C57BL/6j mice) (mouse) (P35951 22-862): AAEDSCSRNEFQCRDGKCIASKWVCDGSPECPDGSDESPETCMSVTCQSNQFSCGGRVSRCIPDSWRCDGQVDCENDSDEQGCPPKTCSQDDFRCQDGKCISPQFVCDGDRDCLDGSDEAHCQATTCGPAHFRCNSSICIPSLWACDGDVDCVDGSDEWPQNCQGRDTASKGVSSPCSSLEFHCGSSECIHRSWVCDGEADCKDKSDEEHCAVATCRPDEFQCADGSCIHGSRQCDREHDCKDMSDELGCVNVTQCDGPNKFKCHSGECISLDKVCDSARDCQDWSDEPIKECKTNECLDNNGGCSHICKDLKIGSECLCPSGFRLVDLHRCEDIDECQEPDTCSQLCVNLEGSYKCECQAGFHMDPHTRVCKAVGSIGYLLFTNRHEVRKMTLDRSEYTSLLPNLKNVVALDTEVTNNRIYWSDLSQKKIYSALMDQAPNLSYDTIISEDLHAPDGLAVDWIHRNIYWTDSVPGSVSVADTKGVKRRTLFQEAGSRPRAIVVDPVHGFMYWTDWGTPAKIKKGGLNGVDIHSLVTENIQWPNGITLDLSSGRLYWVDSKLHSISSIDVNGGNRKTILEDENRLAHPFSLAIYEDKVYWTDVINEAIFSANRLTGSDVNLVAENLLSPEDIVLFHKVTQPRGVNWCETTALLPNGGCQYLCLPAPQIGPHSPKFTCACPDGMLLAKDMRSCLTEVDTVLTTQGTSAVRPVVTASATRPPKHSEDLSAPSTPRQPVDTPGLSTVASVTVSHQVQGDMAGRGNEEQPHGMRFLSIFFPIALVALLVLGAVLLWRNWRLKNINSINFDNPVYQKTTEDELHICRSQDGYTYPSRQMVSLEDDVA

Regarding non-specific IgG control (antibody), the AlphaScreen mean counts in [1] was determined as 135000 counts; in [2] it was 80700 counts; in [3], 140000 counts; in [4], 139000 counts; in assay [5], 127000 counts; in assay [6] it was 134000 counts. Further, the AlphaScreen mean counts worked out at 140000 counts in [7]; 136000 counts in assay [8]; 140000 counts in [9]; 135000 counts in assay [10]; 114000 counts in assay [11]; 82800 counts in [12]. Also, the AlphaScreen mean counts in assay [13] was 88100 counts; in assay [14], 84400 counts; in assay [15] it was 83100 counts; in [16] it was 78200 counts; in [17], 82100 counts; in assay [18], 79600 counts. Moreover, the figures for the AlphaScreen mean counts in assay [19], in [20] and in [21] were 79600 counts, 74400 counts and 61900 counts, respectively.
As to “human PCSK9 Protein (injected intravenously into mice) (from UniProt Q8NBP7 31-692) (enzyme)”, in [22], the % Change of mean liver LDLR/GAPDH against saline only, mice given Saline and PCSK9 (darker exposure) is -78.8%; the % Change of mean liver LDLR/GAPDH against saline only, mice given Saline and PCSK9 (lightest exposure) is -82%; the Mean liver LDLR/GAPDH, mice given Saline and PCSK9 (western blot, darker exposure of LDLR panel) was 0.123 AU.
“human PCSK9 Protein (injected intravenously into mice) (from UniProt Q8NBP7 31-692)”: the Mean liver LDLR/GAPDH, mice given Saline and PCSK9 (western blot, lightest exposure) in assay [22] came to 0.081 AU.

B1: 77D10 anti-PCSK9 antibody (IgG2b) (antibody, V domains shown)
VH: EVQLQQSGAELVRSGASVKLSCTTSGFNIKDYYIHWVKQRPEQGLEWIGWIDPENGDTEYAPKFQGKATMTADTSSNTAYLQLSSLTSADTAVYYCNAYYRYDDGTWFPYWGQGTLVTVSA
VL: DIQLTQSPASLSASVGETVTITCRASGNIHSYLAWYQQKQGKSPQFLVDNAKTLPDGVPSRFSVSGSGTQYSLKINSLQPEDFGTYYCQHFWNTPWTFGGGTKLEIKR
In [23], B1 returned an IC50 of 38 nM. Also, the “% inhibition at 450 nM of antibody” value in assay [24] was found to be 62%.

B2: 75B9 anti-PCSK9 antibody (IgG2a) (antibody, V domains shown)
VH: EVQLQQSGADLVKPGASVKLSCTASGFNIKDTYIHWVKQRPEQGLEWIGRIDPANGHTEYDPKFQGRATLTTDTSSNTAYLQLFSLTSEDSAVYFCARSYYGSIFAYWGQGTLVTVSA
VL: QIVLTQSPAIMSASPGEKVTISCSASSSVSYLFWYQQKPGSSPKPWIFRTSYLASGVPARFSGSGSGTSFSLTISSMEAEDAATYYCHQYHTYPPTFGGGTKLEIKR
In assay [23], B2 returned an IC50 of 0.5 nM. Moreover, the “% inhibition at 450 nM of antibody” value in [24] worked out at 100%.

B3: 11B5 anti-PCSK9 antibody (IgG2a) (antibody, V domains shown)
VH: EVQLQQSGAELVKPGASVTLSCTASGFNIKDTYMHWVNQRPEQGLVWIGRIDPANGHTEYDPKFQDKATITTDTSSNTAYLHLSSLTSGDTAVYYCARSYFGSIFAYWGQGTLVTVSA
VL: B2 VL with F33Y, T50S, Y52H, L53R, F70Y, H91Q, T92S
B3 yielded an IC50 in assay [23] of 0.4 nM. In assay [24], the “% inhibition at 450 nM of antibody” value worked out at 100%.

B4: 29C10 anti-PCSK9 antibody (IgG2a) (antibody, V domains shown)
VH: EVLLQQSVAELVRPGASVRLSCTASGFNIKDTYIHWVRQRPEQGLEWFGWIDPANGYTKYAPNFQGKATLTTDTSSNTAYLHLSSLTSEDSAIYYCARGYYRYYSLDYWGQGTSVTVSS
VL: DIQMTQTTSSLSASLGDRVTISCRASQDISNYLNWYQQKPDGTVKLLIYYSSRLHSGVPSRFSGRGSGTDYSLTISTLEQEDIATYFCQQGKTLPLTFGAGTKLELKR
B4 registered an IC50 in assay [23] of 13 nM. In addition, the “% inhibition at 450 nM of antibody” value in assay [24] amounted to 71%.
